In patent publication US20190083615A1:

Biological target: cynomolgous monkey LAG3 expressed on cells (cynomolgous monkey)
Test: cell based KinExA, BaF/3 cells transfected with cynomolgus LAG3 (n=2)

Sequence of cynomolgous monkey LAG3 expressed on cells (cynomolgous monkey) (P18627 other isoform, or with tags, fused parts or gaps limits assumed): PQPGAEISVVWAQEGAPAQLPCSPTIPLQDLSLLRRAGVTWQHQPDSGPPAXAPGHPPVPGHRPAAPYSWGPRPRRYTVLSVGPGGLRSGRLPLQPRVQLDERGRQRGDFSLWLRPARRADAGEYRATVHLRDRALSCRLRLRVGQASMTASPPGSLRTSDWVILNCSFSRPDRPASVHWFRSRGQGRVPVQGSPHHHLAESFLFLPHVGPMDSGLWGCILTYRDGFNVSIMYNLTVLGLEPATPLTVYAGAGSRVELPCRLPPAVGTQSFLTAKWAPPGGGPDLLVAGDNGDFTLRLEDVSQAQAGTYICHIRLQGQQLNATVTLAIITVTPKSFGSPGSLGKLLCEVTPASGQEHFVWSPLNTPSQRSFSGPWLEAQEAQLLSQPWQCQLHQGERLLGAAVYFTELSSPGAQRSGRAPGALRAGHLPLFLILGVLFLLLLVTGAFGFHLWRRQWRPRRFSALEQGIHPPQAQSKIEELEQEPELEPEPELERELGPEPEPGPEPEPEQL

Kd: 0.011 nM
B1: 22D2 chimera: chimeric antibody [LAG3_H] mAb (LB145.22D2.E1.D1 (VH0/VL0) Geneart) IgG4 S228P/kappa (PX) (antibody, V domains shown)
VH: EVLLLQSGPELVKPGTSVKIPCKASGYTFTDYNVDWVKQRHGKGLEWIGDINPNNGGTIYSQKFKGKATLTVDKSSSTAFMELRSLTSEDTAVYFCARNYRWFGAMDHWGQGTSVTVSS
VL: DIVLTQSPASLAVSPGQRATISCKASQSLDYEGDSDMNWYQQKPGQPPRLLISGASNLESGIPARFSGSGSGTDFTVNIHPVEEEDAATYYCQQSTEDPRTFGGGTKLEIK
